Among the data in paper PMC2722044 are Kd values, retold here.

Experiment [1] concerns the target VLRB.2DMut13, in vitro affinity-matured variant of VLRB.2D (lamprey). Description: ITC. For orientation: In ITC the heat of successive injections is recorded.
For experiment [2], the target named is VLRB.2D, lamprey variable lymphocyte receptor B specific for hen egg white lysozyme (lamprey). Put plainly: ITC.

In general, Kd refers to the constant that tells how readily two partners part at equilibrium. Turning to “hen egg white lysozyme (from UniProt P00698 19-147) (enzyme)”, the Kd came out at 34 nM in experiment [1] and 430 nM in experiment [2].
